Data from the nanobody polyreactivity screen of Harvey et al. (2022).

Assay: yeast display, Sf9 membrane polyspecificity reagent, FACS + sequencing; frameworks hold sequencing errors
Procedure, shortened: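 Using colony PCR, genes from sorted yeast display clones were amplified, then sequenced on MiSeq at 2 × 250 and filtered by CDR length. The clones had been stained with 10% biotinylated, detergent-solubilized Sf9 membrane reagent for 1 hour at 4 °C and sorted by FACS into low and high (top ~1%) gates on anti-HA and streptavidin fluorescence. Polyreactivity labels come from the gate of origin.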

Row | Sequence | polyreactivity (PSR sort gate)
1 | QVQLVDSGGGLVQAGGSLRLSCAASGRTFGVNAMGWYRQAPGKERELVAAISSGSSTYYADSVKGRFTISRDNAKNTVYLQMNSLKPEDTAVYYCAAKYWSYYQSRSLSYRYFYWGQGTQVTVSS | low polyreactivity
2 | QVQLVDSGGGLVQAGGSLRLSCAASGRTFRHNAMGWYRQAPGKERELVATISNRGGTSYYADSVKGRFTISRDNANNTVYLQMNSLKPEDTAVYYCAARVGVLGYVRYGYWGHGTQVTVSS | low polyreactivity
3 | QVQLVDSGGGLVQAGGSLRLSCAASGRTFSSYAMGSYRQAPGKERELVAAINWSGASTYYADSVKGRFTISRDYAKNTVYLQLNSLKPEDTAVYDCAKSLYVGKFWQIRSSVDYWGQGTQVTVSS | low polyreactivity
4 | QVQLVDSGGGLVQAGGSLRLSCAASGRTFTIYAIGWYRQAPGKEREFVASITGSDGSTYYADSVKGRFTISRDNAKNTVYLQMNSLKPEDTAVYYCAAATSSAYDYWGQGTQVTVSS | low polyreactivity
5 | QVQLVDSGGGLVQAGGSLRLSCAASGRTFYAYAMGWYRQAPGKERELVATISSSDASTYYADSVKGRFTISRDNAKKTVYLLMNSLKPEDTAVYYGNADFVRPSWARGRNNGLYYWGQGTQVTVSS | low polyreactivity
6 | QVQLVDSGGGLVQAGGSLRLSCAASGRTFYWYTMGWYRQAPGKERELVAAISTRGVRTYYADSVKGRFTISRDNAKNTVYLQMNSLKPADTAVYYCNDEYNPTYYTSHDDSDYWGQGTLVTVSS | low polyreactivity
7 | QVQLVDSGGGLVQAGGSLRLSCAASGRTSIWNAMGWYRQAPGKERELVASISWSGGSTYYADSVKGRFTISRDNAKNTVYLQMNSLKPEDTAVYYCAKTGYFLVFNEHLHKKRYDSWGQGTQVTVSS | low polyreactivity
8 | QVQLVDSGGGLVQAGGSLRLSCAASGRTSYENAMGWYREAPGKERELVAAINVSGGSTYYADSVKGRFTISRDNAKNTVYLQMNSLKPEDTAVYYCAADNPYADARSSWYEYNDWGQGTQVTVSS | high polyreactivity
9 | QVQLVDSGGGLVQAGGSLRLSCAASGRTYDTNAMGWNRQAPRKETELVAVITARGGNTSYADSVKGRFTISRDNAKNTVYLQMNSLKPEDTAVYYCAALYFKVGYYTYEYWGQGTQVTVSS | low polyreactivity
10 | QVQLVDSGGGLVQAGGSLRLSCAASGRTYTYYAMGWYRQAPGKERELVAAISKSGGSTYYADSVKGRFTISRDNAKNTVYLQMNSLKPEDTAVYYFAKVYRYSSLYYYWGQGTQVTVSS | low polyreactivity
11 | QVQLVDSGGGLVQAGGSLRLSCAASGSIFDFYAMGWYRQAPGTERELVAAINSGGSTNYADSVKGRFTISRDNAKNTVYLQMNSLTPEDTAVYYCAARHPPYRGGYWGQGTQVTVSS | low polyreactivity
12 | QVQLVDSGGGLVQAGGSLRLSCAASGSIFEINAMGWYRQAPGKERELVAVITDSGSTYYEDSVKGRFTISRDNAKNTVDLQMNSLKPEDTAVYYCAAEYSLLFFLMDYWGQGTQVTVSS | low polyreactivity
13 | QVQLVDSGGGLVQAGGSLRLSCAASGSIFGQYTMGWYRQAPGKERELVAAINSSGDSTFYADSVKGRFTISRDNAKNTVYLQMNSLKPEDTAVYFCAADPYRYYFRAYGWHREGYYWGQGTQVTVSS | low polyreactivity
14 | QVQLVDSGGGLVQAGGSLRLSCAASGSIFPPYAMGWYRQAPGKERELVAAITRSGGSTYYADSVKGRFTISRDNAKNTVYLQMNSLKPEDTAVYYCAARYPGGYGYWGQGTQVTVSS | high polyreactivity
15 | QVQLVDSGGGLVQAGGSLRLSCAASGSIFRYNDMGWYRQAPGKERELVATITSGTNTYYADSVKGRFTISRDNEKNTVYLQMNSLKPEDTAVYYCAAGYPSWYYGYPYDSWGQGTQVTVSS | low polyreactivity
16 | QVQLVDSGGGLVQAGGSLRLSCAASGSIFRYYAMGWYRQAPGKEREFVAAINTNDAGTYYADSVKGRFTISRDNAKNTVYLQMNSLKPEDTAVYYCAADTGYPFWYDYWGQGTQVTVSS | high polyreactivity
17 | QVQLVDSGGGLVQAGGSLRLSCAASGSIFRYYAMGWYRQAPGKEREFVAAITYSGGSTHYADSVKGRFTISRDNEKNTVYLQMNSLKPEDTAVYYCAADYYWRVHYGYWGLGTQVTVSS | high polyreactivity
18 | QVQLVDSGGGLVQAGGSLRLSCAASGSIFSFYAMGGSRQAPGKERELVAAIDGGGSTDYADSVKGRFTISRDHAKYTVYLQMNSLKPEDTAVYDCAARDIYHYDWGQGTQVTVSS | low polyreactivity
19 | QVQLVDSGGGLVQAGGSLRLSCAASGSIFVRYTMGWYRQAAGKERELVAGIRTNGSSTYYADSVKGRFTISRDNAKNTVYLQMNSLKPEDTAVYYCAARLYRYFRQYDYWGQGTQVTVSS | low polyreactivity
20 | QVQLVDSGGGLVQAGGSLRLSCAASGSIFYPYAMGWYRQAPGKEREFVAGITTRGGSTYYADSVKGRFTISRDNAKNTVYLQMNSLKPEDTAVYYCAAYSSVWPNFGYWGQGTQVTVSS | high polyreactivity
21 | QVQLVDSGGGLVQAGGSLRLSCAASGSIFYQYAMGWYRQAPGKQRELVAAISRSGGSTYYADSVKGRFTISRDNAKNTVYLQMISLKPEDTAVYYCAARAVRAAYDYWGLGTQVTVSS | low polyreactivity
22 | QVQLVDSGGGLVQAGGSLRLSCAASGSIFYTNAMGWYRQAPGKERELVAAISYGGTTTYADSVKGRFTISRDNAKNTVYLQMNSLKPEDTAVYYCNADWLYYGYWGYGHIWYDYWGQGTQVTVSS | low polyreactivity

Row | Sequence | polyreactivity (PSR sort gate)
23 | QVQLVDSGGGLVQAGGSLRLSCAASGSIFYYYAMVWYRQAPGKERELVAAISRNGGSTSYADSVKGRFTISRDNAKNTVYLQMNSLKPEDTAVYYCAVRKFHYFRYEYWGQGTQVTVSS | low polyreactivity
24 | QVQLVDSGGGLVQAGGSLRLSCAASGSILAGNVMGWYRQAPGKERELVASITFRGSRTYYADSVKGRFTISRDNAKNTVYLQMNSLKPEDTAVYYCNADVWASGSRGEGYWGQGTQVTVSS | low polyreactivity
25 | QVQLVDSGGGLVQAGGSLRLSCAASGSILAINTMGWYRPAPGKEREFVAAISAGGTSTYYADSVKGRFTISRDNAKNTVSLQMNSLKPEDTAVYYCAAIFIIYRTGYRRYYWGQGTQVTVSS | high polyreactivity
26 | QVQLVDSGGGLVQAGGSLRLSCAASGSILYPYAMGWDRQAPGKEREFVAAITYGGGRTYYADSVKGRFTISRDNAKNTVYLQMNSLKPEDTAVYYCAAKSVYAGRRRIYYLWYDYWGQGTQVTVSS | high polyreactivity
27 | QVQLVDSGGGLVQAGGSLRLSCAASGSIYGFYAMGWYRQAPGKERELVATIRTSGGNTYYADSVKGRFTISRDNAKNTVYLQLKSMKPEDTAVYYCAAAGYLYSGDVHYLYTYEYWGQRTQVTVSS | low polyreactivity
28 | QVQLVDSGGGLVQAGGSLRLSCAASGSTFDGNTMGWYRQAPGKERELVATITNSGGNTYYADSVKGRFTISRDNAKNTVYLQMNSLKPEDTAVYYCNARRTSWRRLGNFYYWGQGTQVTVSS | high polyreactivity
29 | QVQLVDSGGGLVQAGGSLRLSCAASGSTFITNTMGWDRQSPGKDRELVAAISQSGTRTYYANSVKGRFTISRDNAKNTVYLQMNSLKPEDTAVYYCAADRQRYTSSSRKGLGYCGQGTQVTVSS | high polyreactivity
30 | QVQLVDSGGGLVQAGGSLRLSCAASGSTFRLYAMGWYRQAPGKERALVAAITRGGITYYADSVKGRFTISRDNAKNTVYFQMNSLKPEDTAVYYCAATTFGPYALYPRYYYWGQGTQVTVSS | high polyreactivity
31 | QVQLVDSGGGLVQAGGSLRLSCAASGSTFRRNAMGWYRQAPGKERELVAAITSSGGGSTYYADSVKGRFTISRDNAKNSVYLQMNSLKPEDSAVYYCAKDFWYRSYDYWGQGTQVTVSS | low polyreactivity
32 | QVQLVDSGGGLVQAGGSLRLSCAASGSTFTYNSMGGYRQAPGKERELVAAITWSSDITYYADSVKGRFTISRDNAKNTVYLQMNSLIAEDTAVYYCAAYLFGPSIDDYPAFYYDYGYWGQGTQVTVSS | low polyreactivity
33 | QVQLVDSGGGLVQAGGSLRLSCAASGSTFYYNAMGWYRQAPGKERELVARISRSGGSTYADSVKGRFTISRDNAKNTFYLQMNSLKPEDTAVYYCNADAYGTPEFTSYAVCYDYWGQGTQVTVSS | low polyreactivity
34 | QVQLVDSGGGLVQAGGSLRLSCAASGSTFYYNAMGWYRQAPGKERELVARISRSGGSTYADSVKGRFTISRDNAKNTVYLQMNSMKPEDTAVYYCNAVAYGTPEFTSYAVRYDYWGQGTQVTVSS | low polyreactivity
35 | QVQLVDSGGGLVQAGGSLRLSCAASGSTRRGYAMGWYRQAPGKERELVASISRRGGSTYYADSVKGRFTISRDNAKNTVYLQMKSLKTEVTAVYYCAATGRRGYGYGYWGQGTQVTVSS | high polyreactivity
36 | QVQLVDSGGGLVQAGGSLRLSCAASGTTFYSYAMGWYRQAPGKERELVAAISSSGDSTYYADSVKGRFTISRDNAKNTVYLQMNSLKPEDTAVYYCAARKGELWFPQGGYNYWGQGTQVTVLS | low polyreactivity
37 | QVQLVDSGGGLVQAGGSLRLSCAASGYTFEAYAMGWYRQAPGKERELVAAINYSGGSTYADSVKGRFTISRDNAKNTVYLQMNSLKPEDTAVYYCATRLYGYWPYGFDYWGQGTQVTVSS | low polyreactivity
38 | QVQLVDSGGGLVQAGGSLRLSCAAYGSIFKYYCMGWYRQAPGKERELVATISKRGGSTYYADSVKGRFTISRDNAKNSVYLQMNSLKPEDTAVYYCAKDSPALRPLTWQQLYDFWGQGTQVTVSS | high polyreactivity
39 | QVQLVDSGGGLVQAGGSLRLSCAAYGSNLYYAMGWYIQAPGKERELVATITRGGSTYYADSVKGRFTISRDNAKNTVYLQMNSLKPEDTAVYYCAARRAVRVGYYWHDISSYDYWGQGTQVTVSS | low polyreactivity
40 | QVQLVDSGGGLVQAGGSLRLSCAAYGSTDKPNAMGWYRQAPGKQRELVAANSGSGGSTYYADTVKGRFTISRDNAKNTVYLQMNSLKPEDTAVYYCAAKRTGNGYPRSGYSRYEYWGQGTQVTVSS | high polyreactivity
41 | QVQLVDSGGGLVQAGGSLRLSCADSGFTFSWNVMGRYRQAPGKEREYVAAISTSYGGRYYADSVKGRFTISRDNAKNTVDLQMNSLKPEDTAVYYCNDDIVGFQWGYDYWGQGTQVTVSA | low polyreactivity
42 | QVQLVDSGGGLVQAGGSLRLSCPASGSTFQRYAMGWYRQAPGKERELVAAISSSGVRTYYADSVKGRFTISRDNAKNTVYLQMNSLKPEDTAVYYCATGYIFRYRQSAYDYWGQGTQVTVSS | high polyreactivity
43 | QVQLVDSGGGLVQAGGSLRLSCSASGIIIKWYTMVWYRQAPGKEREFVAAISYGGGSTSYADSVKGRFTISRDNAKNTVYLQMNSLKPEDTAVYYCAVVWQGAYSRTNYYYWGQGTQVTVSS | low polyreactivity
